Results taken from the nanobody polyreactivity screen of Harvey et al. (2022).

Test: yeast display, Sf9 membrane polyspecificity reagent, FACS + sequencing; frameworks hold sequencing errors
Method in brief: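 Galactose induction of a Saccharomyces cerevisiae BJ5465 synthetic nanobody display library ran 36–48 hours. The cells were then stained for 1 hour at 4 °C with 10% biotinylated, detergent-solubilized Sf9 membrane reagent, pulled down on streptavidin microbeads and FACS-sorted into low and high (top ~1%) gates on expression and reagent-binding fluorescence. Labels for polyreactivity follow the gate of origin.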
In the case of “QVQLVESGGGLVHAGGILRLSCAASGSTFTPNAMGWYRQAPGKEREFVAAITYSGGTTYNADSVKGRFTISRDNAKKTVYLQRNRLKPEDTAVYYCAAVYFLLYYEAYYYWGQGTQVNVSS”, the “polyreactivity (PSR sort gate)” value is reported as “low polyreactivity”. In the case of “QVQLVESGGGLVHAGGPLRLSCAASGFTFGEYAMGWYRPAPGKERELVAAITWSVGSTYYADSVKGRFTISRDNAKNTVYLEMNSLKPEDTAVYYCAAVLNWSRYGYWGQGTQVTVSS”, the “polyreactivity (PSR sort gate)” value is reported as “low polyreactivity”. With “QVQLVESGGGLVHAGGRLRLSCAASGRIFGRNAMGWYRPPPGKERELVAAITKSGGRTYYADSVKGRFSISRVNAKNNVYFQMICLKPEDNAVYYCNRIVTFGWQYDFDFWGQGTQVTVSS” the “polyreactivity (PSR sort gate)” value was “high polyreactivity”. In the case of “QVQLVESGGGLVHAGGRLRLSCAAYGITFSSYAMGWYRQAPGKERELVAAITWSGTSTYYADSVKGRFTISRDNAKNTVYLQMNSLKPEYTAVSYCADEAGAPFSISHDYWGQGTQVTVSS”, the “polyreactivity (PSR sort gate)” value is reported as “low polyreactivity”. For “QVQLVESGGGLVHAGGSHRLSCAASGTMGCYRQAPGKEMELVAAISQSGGSTYYADSVKGRFTISRDNAKNTVYLQMNSLKPEATAVYYCAVDPRYGHPRRDYWGQGTQVTVSS”, the “polyreactivity (PSR sort gate)” value was “low polyreactivity”. For “QVQLVESGGGLVHAGGSIRLSCSASRRIFGYNVMGWYRQAPGKERELVAAITSGDRTYYADSVKGRFTISRDNAKHTVYLQMNSLKPEDTAVYYCAARGDRRRYGSLMDSWGQGTQVTVSS”, the “polyreactivity (PSR sort gate)” value was “high polyreactivity”. In the case of “QVQLVESGGGLVHAGGSLRLSCAACGRIFGPYDMGWYRQAPGKEMELVAAISWSGGNTYYADSVKGRFTISLDNAKNTVYLQMNSLKPEDTAVYYCNADYYPSSYPYDYWGQGTQVTVSS”, the “polyreactivity (PSR sort gate)” value is reported as “low polyreactivity”. With “QVQLVESGGGLVHAGGSLRLSCAASGFIFAYYAMGWYRQAPGKERELVAAIDSAGRTTYADSVKGRFTISRDNAKNSVYLQMNSLKPEDTAVYYCAKFTPSVYKLSLQQGYDYWGQGNQVTVSS” the “polyreactivity (PSR sort gate)” value was “high polyreactivity”. In the case of “QVQLVESGGGLVHAGGSLRLSCAASGFIFKRYPMGWNRPAHGKERELVAVITRSGGSTYYADSVKGRFTISRDNAKNTVYLQMNSLKPEDTAVYYCAAQGLLKFYWGQGTQVTVSS”, the “polyreactivity (PSR sort gate)” value is reported as “high polyreactivity”. In the case of “QVQLVESGGGLVHAGGSLRLSCAASGFIFPGNAMGWYIQAPGKERDLVAAISNSGSRTYYADSVKGRFTISRDNAKNTVYLQMISLKPEDTAVYYCNADVHNRGWPYDYWGQGTQVTVSS”, the “polyreactivity (PSR sort gate)” value is reported as “low polyreactivity”. With “QVQLVESGGGLVHAGGSLRLSCAASGFIFWDYAMGWYRQAPGKERELVAAISDSGGDTYYADSVKGRFTISRDNAKNTVNLQMNRLKPEDTAVYYCAAYSPSSRFDRRGYWGQGNQVTVSS” the “polyreactivity (PSR sort gate)” value was “low polyreactivity”. In the case of “QVQLVESGGGLVHAGGSLRLSCAASGFIFYGNAMGWYRQAPGKERELVAAITWSSGSTYYADSVKGRFTISRYNAKNTVYLQMNSLSPEDTAVYYSNSEWSAKRPYPSRYYFNLGYWGQGTQVTESS”, the “polyreactivity (PSR sort gate)” value is reported as “high polyreactivity”. For “QVQLVESGGGLVHAGGSLRLSCAASGFILYSYAMGWYRQAPGKERELVAAINSTGSTYYADSVKGRFTISRDNAKNTVYLQMNSLKPEDTAFYYCATDPWYQTDLSYDTPYYYWGQGKQVTVSS”, the “polyreactivity (PSR sort gate)” value was “low polyreactivity”. With “QVQLVESGGGLVHAGGSLRLSCAASGFTFAGYAMGWYRQAPGKERELVAGIRSSGARTYYADSVKGRFTISRDNAKNTVYLQMNSLKPDDTAVYYCAKTDGFYGGYGYWGQCTQVTVSS” the “polyreactivity (PSR sort gate)” value was “low polyreactivity”. For “QVQLVESGGGLVHAGGSLRLSCAASGFTFGPYAMGWYRQAPRKERELVAAITGSGGITYYADSVKGRFTISRDNAKNTVYLQKNSLKPEDTAVYYCAAEYPYVYGTYSDSYTEYDYWGQGTQVTVSS”, the “polyreactivity (PSR sort gate)” value was “low polyreactivity”. For “QVQLVESGGGLVHAGGSLRLSCAASGFTFRSYAMGWYRQAPGKERELVAAISWSGGSTYYADSVKGRYTISRDNAKNTVYLQMNSLKPEDTAVYYCAAVRVSKYDYWGQGTQVTVSS”, the “polyreactivity (PSR sort gate)” value was “high polyreactivity”. In the case of “QVQLVESGGGLVHAGGSLRLSCAASGFTIPYYAMGWYRQAPGKERELVAAIRISGGSTYYADSVKGRFTISRDNAKNTVYLQMNSLKPEDTAVYYCAADYRYRSRFYYWGQGTQVTVSS”, the “polyreactivity (PSR sort gate)” value is reported as “low polyreactivity”. With “QVQLVESGGGLVHAGGSLRLSCAASGGIFSWNTMGWYRQAPGKERELVAAINWSSGRTYYADSVKGRFTISRDNAKYTVYLQMNSLKPEDTAVYYCAAKYYGSRKYDYWGQGTQVTVSS” the “polyreactivity (PSR sort gate)” value was “high polyreactivity”. With “QVQLVESGGGLVHAGGSLRLSCAASGGIFYVNAMGWYRQAPGKERELVADIRYSGTSTYYADSVKGRFTISRDNAKNTVYLQMNSLKPEDTAVYYCAVDAWDTTHVYEQGAERDSWGQGTQVTVSS” the “polyreactivity (PSR sort gate)” value was “low polyreactivity”. For “QVQLVESGGGLVHAGGSLRLSCAASGIIFDDYAMGSYRQPPGKERELVAAISGRGGRTYYADSVKGRFTISRDNAKNTVYLQMNSLKPEDTAVYYCAGGGRVRYDYWGQGTQVTVSS”, the “polyreactivity (PSR sort gate)” value was “low polyreactivity”. With “QVQLVESGGGLVHAGGSLRLSCAASGIIFGSYAMGWYRQAPGKERELVAAITRSGGRTYYADSVKGRFTISRDNAKNTVYLQMNSLKPEDTAVYYCAADRGYRGATGKYDSWGQGTEVTVSS” the “polyreactivity (PSR sort gate)” value was “high polyreactivity”. With “QVQLVESGGGLVHAGGSLRLSCAASGIIFPYNLMGWYRQAPGKERELVADITRGAASTYYADSVKGRFTISRVNAKNTVYFQMNRLKTEDTAVYFCNADGTWRTYNFWGQGTQVTVSS” the “polyreactivity (PSR sort gate)” value was “high polyreactivity”. For “QVQLVESGGGLVHAGGSLRLSCAASGIISGWNGMGWYRQAPGKERELVASIDKNGSTYYADSVKGRCTISRDNAKNTVYLQMISLKPEDTAVYYCASDVRYRGNREDYWGQGTQVNVSS”, the “polyreactivity (PSR sort gate)” value was “low polyreactivity”. With “QVQLVESGGGLVHAGGSLRLSCAASGITFKWNDMGWYRQAPGKEREFVAAITGSTGSTFYADSVKGRFTISRDNAKNTVYLQMNSLKPEDTAVYYCAAGPWFYYWGQGTQVTVSS” the “polyreactivity (PSR sort gate)” value was “low polyreactivity”. For “QVQLVESGGGLVHAGGSLRLSCAASGLIFRAYAMGWYRQAPGKERELVAAITSSSGSTYYADSVKGRFTISRDIAKNTVYLEMNSLKPEDTAVSYCNAYSTFGWYDYWGQGTQVTVSS”, the “polyreactivity (PSR sort gate)” value was “low polyreactivity”. With “QVQLVESGGGLVHAGGSLRLSCAASGRIFDGNTMGWYRQAPGKERELVAAISGGGSTDYADSVKGRFTISRDNAKNTVYLQMNSLKPEDTAVYYCAATTGPVPLKGDYWGQGTQVTVSS” the “polyreactivity (PSR sort gate)” value was “low polyreactivity”. For “QVQLVESGGGLVHAGGSLRLSCAASGRIFKNYVMGWYRQAPGKERELVAGISSSGGSTYYADSVKGRFTISRYNAKNTVYLQMNSLKPEDTAVYYCAADYTFAYYNFKMDYWGQVTQVTVSS”, the “polyreactivity (PSR sort gate)” value was “low polyreactivity”. In the case of “QVQLVESGGGLVHAGGSLRLSCAASGRIFKSYAMGWYRQAPGKEREFVAAISTRSSSTYYADSVKGRFTISRDNAKNTVYLQMNSLKPEDTAVYYCAKVYQTLPYYYPGDYWGQGTQVNVSS”, the “polyreactivity (PSR sort gate)” value is reported as “low polyreactivity”. With “QVQLVESGGGLVHAGGSLRLSCAASGRIFLYYVMGWYRQAPGKERELVAAITSGGSTYYADSVKGRFTISRDNAKNTVYLQMNSLKPEDTAVYYCNKVSYYRNEYWGQGTQVTVSS” the “polyreactivity (PSR sort gate)” value was “high polyreactivity”. In the case of “QVQLVESGGGLVHAGGSLRLSCAASGRTFCGYAMGRYRHAPGKERELVATNSYSSGSTYYADSVKGRFTISRDNAMNTVYLQMNSLTPEDTAVYYCAARIRYFYRYDYWGQGTQVTVSS”, the “polyreactivity (PSR sort gate)” value is reported as “high polyreactivity”. With “QVQLVESGGGLVHAGGSLRLSCAASGRTFKIYAMGWYRQAPGKERELVATISWRGGSTYYADSVKGRFTISRDNAKNTVYLQMNSLKPEDTAVYYCAKALYVAGSAYRAGYGVRYDYWGQGTQVTVSS” the “polyreactivity (PSR sort gate)” value was “low polyreactivity”. For “QVQLVESGGGLVHAGGSLRLSCAASGRTFPTNAMGWYRQSPGKDRELVAAISWSGGGTYYADSVKGRFTISRDNAKNTIYLQMNSLKPEDTAVYYCAADDTPDTIYGSDYWGQGTQVTVSS”, the “polyreactivity (PSR sort gate)” value was “low polyreactivity”. With “QVQLVESGGGLVHAGGSLRLSCAASGRTFRDNVMGWSRQAPGKERELVAAISRSGGSTYYADSVKGRFTISRDNAKHTVYLQMNSQKPEDTAVYYSNAPYYVRSQYTFDYWGQGTQVTVSS” the “polyreactivity (PSR sort gate)” value was “high polyreactivity”. For “QVQLVESGGGLVHAGGSLRLSCAASGRTFRYYTMGWYRQAPGKEREFVAAISSTGGTYYADSVKGRFTISRDNAKNTVYLQMNSLKPEDTAVYYCAATFIQVVVNVQLYDYDYWGQGTQVTVSS”, the “polyreactivity (PSR sort gate)” value was “low polyreactivity”. In the case of “QVQLVESGGGLVHAGGSLRLSCAASGSIFFIYAMGGYRPAPGTERELVARISQGGASPYYADSVKGRFTISRDNAKTTVYLQMNSLKPEDTVVYYCAAGYTNTRLRPKGYGYYYWGQGTQVTVSW”, the “polyreactivity (PSR sort gate)” value is reported as “high polyreactivity”. For “QVQLVESGGGLVHAGGSLRLSCAASGSIFFQYGMGWYRHAPGKEREYVAAISVSGGSTYYADSVKGRFTISRDNAKNSVYLQMNSLKPEDTAVYYCAADGSTDYVYSPPIDEYDFWGQGTQVTVSS”, the “polyreactivity (PSR sort gate)” value was “low polyreactivity”. In the case of “QVQLVESGGGLVHAGGSLRLSCAASGSIFGYYTMGWYRQAPGKERELDAAITSGGSTNYADSVKGRFTISRDNAKNTVYLEMNSLKPEDTAVYYCAKVSYYPWRYDDWGQGTKVTVSS”, the “polyreactivity (PSR sort gate)” value is reported as “low polyreactivity”. In the case of “QVQLVESGGGLVHAGGSLRLSCAASGSIFKPYVMGWYRQAPGKERELVAAITTSGVRTYYADSVKGRFTISRDNAKNTVYLQMNSLKPEDTAVYYCATRRWSWPQFRTGDYWGQGTQVTVSS”, the “polyreactivity (PSR sort gate)” value is reported as “high polyreactivity”. For “QVQLVESGGGLVHAGGSLRLSCAASGSIFNYYAMGWYRQAPGKERELVAAISYGTGSTYYADSVKWRFTISRDNAKNTDYLQMNSLKPEDTAVYYCAADTRYGYGYWGQGTQVTVSS”, the “polyreactivity (PSR sort gate)” value was “high polyreactivity”. For “QVQLVESGGGLVHAGGSLRLSCAASGSIFPDNTMGWYRQAPGKERELVAAIDGRGGTTYYADSVKGRFTISRDNAKNTVYLQMNSLKPEDTAVYYCARDIGHSARYDYWGQGTQVTVSS”, the “polyreactivity (PSR sort gate)” value was “low polyreactivity”. In the case of “QVQLVESGGGLVHAGGSLRLSCAASGSIFTGYAMGWYRQAPGKERELVAAIDYRSGSTYYADSVKGRFTISRDNAKNTVYLQMNSLKPEDTAVYYCAAPAGWGFDEAFGYGYWGQGTQVTVSS”, the “polyreactivity (PSR sort gate)” value is reported as “low polyreactivity”. In the case of “QVQLVESGGGLVHAGGSLRLSCAASGSIFVWNAMGWYRQAPGKERELVARIRYSSNTYYADSVKGRFTISRDNAKNNVYLQMTSLKPEDTAVYYCAAGSTRYAGWTYNYWGQGTHVTVSS”, the “polyreactivity (PSR sort gate)” value is reported as “high polyreactivity”. For “QVQLVESGGGLVHAGGSLRLSCAASGSIYYAYAMGGYRQAPGKERELVATITWNGDSTYYADSVKGRFTISLDNAKNTVYLQMNSLKPEDTAVYYCAARYRWPIPGTQYEYWGQGTQVTVSS”, the “polyreactivity (PSR sort gate)” value was “low polyreactivity”.
